{
  "source": "patent US20170252327A1",
  "about": "“Methods of Modulating Gastrointestinal Tract Flora Levels with Alkaline Phosphatase” (priority 2008, published 2017)",
  "key": {"gut microbiota [1]": {"system": "gut microbiota", "assay": "Restoration of gut flora after streptomycin treatment with or without cIAP (stool culture in LB media)", "format": "in vivo, mice (C57BL/6)", "description": "To address the role of intestinal alkaline phosphatase on the gastrointestinal tract flora of mammals, an experiment was performed in which five approximately six week old mice (C57BL/6) of each test group were treated with an antimicrobial drug, streptomycin, in the presence or absence of calf intestinal alkaline phosphatase (cIAP) (Sigma, St. Louis, Mo.). Both streptomycin (5 mg/ml) and cIAP (50 units/ml) were administered orally with the animal's drinking water. Individual stool samples of each group were cultured in LB media each day and analyzed for the presence/absence of gut flora. The gastrointestinal tract flora of mice before antibiotic treatment was considered as a baseline control for the normal gut flora (present in all samples)."}, "gut microbiota [2]": {"system": "gut microbiota", "assay": "Restoration of gut flora after ampicillin treatment with or without cIAP (stool culture in LB media)", "format": "in vivo, mice (C57BL/6)", "description": "An experiment was performed in which five mice (C57BL/6) of each test group, approximately 6 weeks old, were treated with 1 mg/ml of the antimicrobial drug ampicillin, in the presence or absence of calf intestinal alkaline phosphatase (cIAP) (New England Biolabs, Ipswich, Mass.). Ampicillin was administered orally with the animal's drinking water at a concentration of 1 mg/ml, and 250 units of cIAP were administered twice daily as oral gavage. Individual stool samples of each group were cultured in LB media each day and analyzed for the presence/absence of the gut flora. The gut flora of mice before receiving the antibiotic was considered as a baseline control for normal gastrointestinal tract flora (present in all samples). […] Both treatment groups received ampicillin for 10 days."}, "[3]": {"system": "streptomycin-resistant S. typhimurium", "assay": "Growth of Salmonella typhimurium in streptomycin-treated WT mice with or without cIAP", "format": "in vivo", "conditions": "for Growth of pathogenic S. typhimurium: cIAP in the drinking water", "description": "Restoration or maintenance of the normal gastrointestinal tract flora by IAP was postulated to inhibit infection by pathogenic bacteria because pathogenic bacteria would likely face competition for ‘food and shelter’ (e.g., nutrition, epithelial attachment sites, space, etc.) and antibacterial factors produced by commensal organisms. Accordingly, groups of WT mice (n=5) were treated with streptomycin (5 mg/ml) for 3 days, followed by oral gavage of 500,000 CFU of streptomycin-resistant S. typhimurium in the presence of cIAP (200 U/ml for cIAP^+ Group) or absence of cIAP (20 μl /ml ‘vehicle for cIAP’ (50 mM KCl, 10 mM Tris-HCl (pH 8.2), 1 mM MgCl2, 0.1 mM ZnCl2, and 50% glycerol) in drinking water for control cIAP^− Group). The presence of S. typhimurium was monitored in the stools of these animals by plating stools on Hektoen plates containing streptomycin (100 μg/ml)."}, "[4]": {"system": "Gram-negative bacteria (mostly E. coli)", "assay": "Restoration of commensal Gram-negative gut flora in streptomycin-treated WT mice with or without cIAP (MacConkey agar)", "format": "in vivo", "conditions": "for Number of animals with commensal Gram-negative bacteria / restoration of gut flora, cIAP+ vs cIAP- Group: after streptomycin for three days, cIAP 200 U/ml, p<0.00004", "description": "Accordingly, experiments were performed in which groups of WT mice (n=10) were treated orally with the antibiotic streptomycin in the presence or absence of cIAP. Streptomycin (5 mg/ml) and cIAP (200 U/ml for cIAP^+ Group, n=5) or ‘vehicle for cIAP’ (20 μl/ml ‘vehicle for cIAP’ (50 mM KCl, 10 mM Tris-HCl (pH 8.2), 1 mM MgCl, 0.1 mM ZnCl2, and 50% glycerol) in drinking water for control cIAP^− Group, n=5) were administered in the animals' drinking water and fecal cultures were performed.\nIndividual stool samples were cultured each day on MacConkey agar media. […] After discontinuation of antibiotic treatment, the time of appearance (Day) of Gram-negative bacteria (mostly E. coli, occasionally P. mirabilis) in stool samples was recorded for each animal. The experiment was repeated six times, which raised the total number of animals in each group to 39 (n=39), however, duration of each experiment varied (7-35 days). Data was compiled from all six experiments and the number of animals with E. coli in each group on a specific day was recorded."}, "[5]": {"system": "streptomycin-resistant E. coli", "assay": "Survival of gavaged commensal E. coli in IAP-KO mice given oral cIAP", "format": "in vivo", "conditions": "oral supplementation of cIAP", "excerpt": "Two groups of IAP-KO animals (n=6) were put on drinking water containing cIAP or ‘vehicle for cIAP.’ On Day 2, animals were gavaged with 20,000 CFU of streptomycin-resistant E. coli, which is a commensal bacterium isolated from the stool of a WT mouse, and the presence of streptomycin-resistant E. coli in the stools of these animals was closely monitored. As only a few animals carried E. coli in their stools (FIG. 4B), the animals were gavaged with another dose of 50,000 CFU of E. coli on Day 5, however, again only a few animals shed E. coli in their stools. On Day 8, most of the animals of either group carried no E. coli in their stools. Supplementation of cIAP was stopped and the animals were treated with streptomycin for 3 days, which should kill most of the native flora, but would allow proliferation of the surviving streptomycin-resistant E. coli."}, "[6]": {"format": "physicochemical", "conditions": "24 h", "description": "IAP activity was determined following the protocol as described by Baykov et al. (Anal Biochem, 171:266, 1988). Briefly, individual stool samples were homogenized in water (10 mg/100 μl), centrifuged and supernatant was collected. Then 25 μl of the stool supernatant (or aqueous cIAP solution) were mixed with 175 μl phosphatase assay reagent containing 5 mM of p-nitrophenyl phosphate (pNPP) followed by determining optical density at 405 nm after a specific time period when the samples usually turned yellow due to release of p-nitrophenol. Protein concentrations of stool supernatants were measured using a kit from Bio-Rad Laboratories (Hercules, Calif.). The specific activity of the enzyme, expressed as pmole pNPP hydrolyzed per minute per μg of protein, and CFU per gm of stool +/− SEM were determined and the results are shown in FIG. 3. As expected, IAP activity is lower in hypothyroid animals (Weeks 6-32, FIG. 3A) as compared to the euthyroid animals (Week 0, FIG. 3A). […] At Week 32 the IAP activity in hyperthyroid animals was approximately 7-fold higher compared to euthyroid animals and 15-fold higher compared to hypothyroid animals. […] On the other hand the fecal bacterial counts in hyperthyroid animals continued to gradually increase, being the highest at Week 32 when the experiment was terminated (FIGS. 3B, 3C, and 3D). […]"}, "[7]": {"system": "streptomycin-resistant E. coli", "assay": "Colonization of E. coli in antibiotic-treated WT mice supplemented with cIAP", "format": "in vivo", "conditions": "WT mice after streptomycin and ciprofloxacin, p<0.015", "description": "To determine the temporal effects of IAP on the restoration of commensal gut flora, groups of WT animals (n=6) were treated with streptomycin (5 mg/ml) and ciprofloxacin (0.5 mg/ml) for three days followed by oral gavage of small doses (20,000 CFU) of streptomycin-resistant E. coli for two alternate days (FIG. 4C; Day 0 and Day 2) in the presence or absence of cIAP."}},
  "note": "“Also recorded” adds a separate entry of the source.",
  "data": [
    {"molecule": "calf intestinal alkaline phosphatase (protein, UniProt P19111 20-506, looked up, calf intestinal alkaline phosphatase enzyme (Sigma)) Intestinal-type alkaline …: LVPVEEEDPAFWNRQAAQALDVAKKLQPIQTAAKNVILFLGDGMGVPTVTATRILKGQMNGKLGPETPLAMDQFPYVALSKTYNVDRQVPDSAGTATAYLCGVKGNYRTIGVSAAARYNQCKTTRGNEVTSVMNRAKKAGKSVGVVTTTRVQHASPAGAYAHTVNRNWYSDADLPADAQMNGCQDIAAQLVNNMDIDVILGGGRKYMFPVGTPDPEYPDDASVNGVRKRKQNLVQAWQAKHQGAQYVWNRTALLQAADDSSVTHLMGLFEPADMKYNVQQDHTKDPTLQEMTEVALRVVSRNPRGFYLFVEGGRIDHGHHDDKAYMALTEAGMFDNAIAKANELTSELDTLILVTADHSHVFSFGGYTLRGTSIFGLAPSKALDSKSYTSILYGNGPGYALGGGSRPDVNDSTSEDPSYQQQAAVPQASETHGGEDVAVFARGPQAHLVHGVEEETFVAHIMAFAGCVEPYTDCNLPAPTTATSIPD", "values": [
      {"measurement": "Gut flora of mice receiving only cIAP", "setting": "gut microbiota [1]; cIAP 50 units/ml in drinking water, no streptomycin", "result": "normal gut flora phenotype; also recorded: did not affect normal gut flora"},
      {"measurement": "Effect of cIAP on reestablishment of normal gut flora", "setting": "gut microbiota [1]; co-administered with streptomycin throughout the treatment period", "result": "significantly enhanced the early reestablishment of normal gut flora"},
      {"measurement": "Gut flora of mice receiving only cIAP", "setting": "gut microbiota [2]; 250 units cIAP twice daily oral gavage, no ampicillin", "result": "normal gut flora phenotype; also recorded: did not affect normal gut flora"},
      {"measurement": "Effect of cIAP on time for restoring the normal gut flora", "setting": "gut microbiota [2]; with ampicillin", "result": "significantly reduced the time for restoring the normal gut flora"},
      {"measurement": "Salmonella count, less than in cIAP- Group", "setting": "[3]; cIAP 200 U/ml in drinking water, p<0.001", "result": "approximately 4 log"},
      {"measurement": "Growth of pathogenic S. typhimurium", "setting": "[3]", "result": "dramatically inhibited"},
      {"measurement": "Growth of pathogenic S. typhimurium", "setting": "[3]; listed as IAP", "result": "inhibits Salmonella typhimurium infection"},
      {"measurement": "Number of animals with commensal Gram-negative bacteria / restoration of gut flora, cIAP+ vs cIAP- Group", "setting": "[4]", "result": "much higher"},
      {"measurement": "Number of animals with commensal Gram-negative bacteria / restoration of gut flora, cIAP+ vs cIAP- Group", "setting": "[4]; listed as IAP", "result": "enhances the restoration of antibiotic-associated loss of gut flora"},
      {"measurement": "Day at the end of which all animals showed E. coli in their stools", "setting": "[4]; cIAP+ Group, after discontinuation of streptomycin", "result": 3, "unit": "days"},
      {"measurement": "Survival of E. coli in IAP-KO mice", "setting": "[5]", "result": "can survive"},
      {"measurement": "Survival of E. coli in IAP-KO mice", "setting": "[5]; listed as IAP", "result": "favors survival of E. coli"},
      {"measurement": "cIAP enzymatic activity remaining", "setting": "[6]", "result": "approximately 80%"},
      {"measurement": "Colonization of E. coli", "setting": "[7]", "result": "temporal enhancement of colonization of E. coli"},
      {"measurement": "Colonization of E. coli", "setting": "[7]; listed as IAP", "result": "temporal enhancement of E. coli colonization"}
    ]}
  ]
}
